The target in assay [1] is T1, Human TNFR1 (soluble) recombinant protein (human, UniProt P19438 42-181, fluorescent label from the Monolith Protein Labeling Kit RED-NHS 2nd Generation (labelled target in MST)).
T1 construct: human TNF receptor 1, soluble recombinant form; also called TNF receptor 1; sTNFR1; source: bought: PeproTech
T1 sequence: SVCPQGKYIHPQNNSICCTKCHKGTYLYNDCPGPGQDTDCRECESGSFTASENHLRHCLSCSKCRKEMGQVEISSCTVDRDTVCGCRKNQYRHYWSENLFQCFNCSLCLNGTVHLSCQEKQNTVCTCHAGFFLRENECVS
The experiment in a line: MST; labelled TNFR1 or TNFR2 (RED-NHS 2nd Generation) at 20 nM, peptide titrated in 16 serial dilutions, PBS, 20 min incubation in the dark, Monolith NT.115 Pico, medium MST power. The note with it: both partners purified.

Assay [2] has as its target T2, Human TNFR2 (soluble) recombinant protein (human, UniProt P20333 33-205, fluorescent label from the Monolith Protein Labeling Kit RED-NHS 2nd Generation (labelled target in MST)).
T2 construct: human TNF receptor 2, soluble recombinant form; also called TNF receptor 2; p80; source: bought: PeproTech
T2 sequence: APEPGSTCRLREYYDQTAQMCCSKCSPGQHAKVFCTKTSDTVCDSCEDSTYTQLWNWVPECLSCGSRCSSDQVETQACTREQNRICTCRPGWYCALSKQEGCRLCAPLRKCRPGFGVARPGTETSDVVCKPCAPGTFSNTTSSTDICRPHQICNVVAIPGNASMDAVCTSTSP
The assay is described as above. Conditions: both partners purified.

Where no end group is shown, it is not given here.

B1: OB5 peptide (peptide)
peptide: NHQVEEQLEWLSQRA-NH2
notes: 15-residue stretch of mouse TNF-α predicted with Rosetta Peptiderive from the mouse TNF-α-human TNFR1 complex; source: synthetic peptide (SPPS, Rink amide resin, HPLC purified)
With B1, in assay [1], the Kd (commonly the free concentration of one partner at which half of the binding sites on the other are occupied at equilibrium, for simple one-to-one binding) worked out at 0.204 µM.

B2: OB7 peptide (peptide)
peptide: VLLTHTISRIAVSYQTKVNLL
notes: Synthesised on Rink amide resin, so probably with a C-terminal amide (stated only for OB5); 21 residues as printed; source: synthetic peptide (SPPS, Rink amide resin, HPLC purified)
Turning to B2, the Kd in assay [1] was 8.6 µM.

B3: OB6 peptide (peptide)
peptide: NPQAEGQLQWLNRRA
notes: 15-residue stretch of human TNF predicted with Rosetta Peptiderive from the TNF-TNFR2 complex; Synthesised on Rink amide resin, so probably with a C-terminal amide (stated only for OB5); source: synthetic peptide (SPPS, Rink amide resin, HPLC purified)
In the case of B3, the Kd in assay [2] stood at 3.9 µM.

The record behind these values is PMC12024540, “Peptide-Based Regulation of TNF-α-Mediated Cytotoxicity” (Biomolecules, 2025).
